The results in this text go back to CN113683687A (EXCYTE BEIJING PHARMACEUTICAL TECH DEVELOPMENT CO LTD, dated 2021).

Positions count from the first letter of the chain named.

The experiment has as its target T1, 新型冠状病毒(2019-nCoV)Spike蛋白 (全长三聚体S蛋白) (新型冠状病毒(2019-nCoV), UniProt P0DTC2 16-1213).
T1 construct: also called 病毒S蛋白
Nature of the experiment: Octet Blitz (BLI), scFv-Fc, apparent affinity. A general note: Biolayer interferometry detects binding as a change in optical thickness at a sensor tip.

B1: CS2 (Fc fusion)
VH: EVQLVQSGAEVKKPGASVKVSCKASGGTFSSYAISWVRQAPGQGLEWMGGIIPIFGTANYAQKFQGRVTITADESTSTAYMELSSLRSEDTAVYYCARGSGDYGMDVWGQGTTVTVSS
VL: QSALTQPASVSGSPGQSITISCTGTSSDVGGYNYVSWYQQHPGKAPKLVISEVRNRPSGVSNRFSGSKSGNTASLTISGLQAEDEADYYCSSYTTRDTRVFGGGTQLTVL
notes: also called 抗体CS2
With B1, the Kd was 2.1 nM.

B2: CS3 (Fc fusion)
VH: B1 VH with A16S, E74K
VL: B1 VL with G31L, V49M, I50V, R54S, Q106K, L107V
notes: also called 抗体CS3
On to B2, for which the Kd was 23.2 nM.

B3: CS7 (Fc fusion)
VH: B1 VH with A16S, F55L, T57I, E74K, G104S, T113L
VL: B1 VL with T5A, S36A, V49M, S51Y, R54S, Q106K
notes: also called 抗体CS7
As for B3, the Kd worked out at 12.3 nM.

B4: CS1 (Fc fusion)
VH: QVQLQQSGAEVKKPGSSVKVSCKASGGTFSSYAISWVRQAPGQGLEWMGGIIPIFGTANYAQKFQGRVTITADESTSTAYMELSSLRSEDTAVYYCARDRGVGRGYSYGFLPLDYWGQGTLVTVSS
VL: DIQMTQSPLSLPATPGEPASISCRSSQSLLHSDGYSYLHWYVQKPGQSPQLLISADSNRASGVPGRFSGSGSGTDFTLKISRVEAEDVGVYYCMQALQTPWTFGQGTKLDIK
notes: also called 抗体CS1
For B4, the Kd worked out at 1.2 nM.
